Patent US20260008852A1 (CRYSTAL BIOSCIENCE, published 2026)

T1: His-tagged mouse B7-H3 (mouse, UniProt Q8VE98 29-244, limits assumed)
T1 construct: Bought His-tagged protein coated on the ELISA plate; also called mu B7-H3; murine B7-H3
T1 sequence (looked up): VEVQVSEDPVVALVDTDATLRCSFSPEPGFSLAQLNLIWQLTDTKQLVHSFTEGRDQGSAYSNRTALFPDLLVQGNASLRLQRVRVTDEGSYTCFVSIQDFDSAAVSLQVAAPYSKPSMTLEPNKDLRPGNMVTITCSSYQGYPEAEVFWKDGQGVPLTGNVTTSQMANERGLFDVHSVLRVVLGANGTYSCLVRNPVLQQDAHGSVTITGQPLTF

T2: His-tagged cynomolgus monkey B7-H3 (cynomolgus monkey)
T2 chain: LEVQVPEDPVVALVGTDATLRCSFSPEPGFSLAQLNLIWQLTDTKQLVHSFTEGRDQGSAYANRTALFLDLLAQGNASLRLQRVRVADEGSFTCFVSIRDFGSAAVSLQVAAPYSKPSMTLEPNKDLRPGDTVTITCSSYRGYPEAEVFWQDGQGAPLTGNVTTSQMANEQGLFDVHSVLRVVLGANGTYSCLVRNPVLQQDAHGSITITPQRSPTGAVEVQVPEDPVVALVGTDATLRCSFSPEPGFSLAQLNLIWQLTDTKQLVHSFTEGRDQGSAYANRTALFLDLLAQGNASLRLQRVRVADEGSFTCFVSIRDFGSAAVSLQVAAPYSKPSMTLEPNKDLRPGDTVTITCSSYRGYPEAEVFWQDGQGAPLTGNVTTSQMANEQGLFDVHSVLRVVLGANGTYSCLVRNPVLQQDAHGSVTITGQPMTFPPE

T3: His-tagged human B7-H3 (human, UniProt Q5ZPR3-2 29-245, limits assumed)
T3 construct: Bought His-tagged protein coated on the ELISA plate; also called hu B7-H3; CD276
T3 sequence (looked up): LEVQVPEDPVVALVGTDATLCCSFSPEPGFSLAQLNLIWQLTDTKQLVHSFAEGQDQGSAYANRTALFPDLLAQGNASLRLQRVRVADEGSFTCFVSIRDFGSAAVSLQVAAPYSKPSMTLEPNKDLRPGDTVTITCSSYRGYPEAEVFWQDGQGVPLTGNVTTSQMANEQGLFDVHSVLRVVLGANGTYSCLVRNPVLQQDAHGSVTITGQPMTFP

T4: B7-H3 on B7-H3-expressing CHO cells (Genescript) (UniProt Q5ZPR3 29-534, limits assumed)
T4 construct: whole, on cells; also called CHO-K1/B7-H3; MFI B7-H3
T4 sequence (looked up): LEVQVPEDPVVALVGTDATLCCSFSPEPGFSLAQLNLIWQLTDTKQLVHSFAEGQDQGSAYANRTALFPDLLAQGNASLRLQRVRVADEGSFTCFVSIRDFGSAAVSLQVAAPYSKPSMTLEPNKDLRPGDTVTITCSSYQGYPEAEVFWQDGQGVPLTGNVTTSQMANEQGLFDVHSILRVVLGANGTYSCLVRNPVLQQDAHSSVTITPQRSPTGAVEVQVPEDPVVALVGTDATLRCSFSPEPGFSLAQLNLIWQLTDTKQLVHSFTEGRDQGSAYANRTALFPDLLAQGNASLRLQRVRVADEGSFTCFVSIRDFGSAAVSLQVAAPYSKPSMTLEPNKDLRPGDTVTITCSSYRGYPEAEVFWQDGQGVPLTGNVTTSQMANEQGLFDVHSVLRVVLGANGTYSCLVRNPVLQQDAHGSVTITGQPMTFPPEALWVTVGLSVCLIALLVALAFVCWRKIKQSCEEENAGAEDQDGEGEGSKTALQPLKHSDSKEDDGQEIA


Key:
[1] = molecular target: T1, His-tagged mouse B7-H3; assay: ELISA, coated His-tagged antigen, scFv-Fc 1 ug/ml
Procedure: (§1) The variable regions of heavy and light chains were cloned and assembled into a single chain Fv-Fc (ScFv-Fc) mammalian expression vector. Sanger sequencing was performed by GeneWiz and sequences were evaluated using DNASTAR Lasergene 15. Unique scFv-Fes were transiently expressed in Expi293 cells (Life Technologies, #A14527) grown in Expi293 Expression Medium (Life Technologies, #A1435101) after transfection using the ExpiFectamine transfection reagent and supplements (Life Technologies, #A14524). Cells were incubated for 3-5 days with shaking at 37° C. in a 5% CO2 humidified incubator.

[2] = molecular target: T2, His-tagged cynomolgus monkey B7-H3; assay: ELISA, coated His-tagged antigen, scFv-Fc 1 ug/ml
Procedure: as §1

[3] = molecular target: T3, His-tagged human B7-H3; assay: ELISA, coated His-tagged antigen, scFv-Fc 1 ug/ml
Procedure: as §1

[4] = molecular target: T3, His-tagged human B7-H3; assay: ELISA OD450 on hu B7-H3 over OD450 on mu B7-H3
Procedure: as §1

[5] = molecular target: T4, B7-H3 on B7-H3-expressing CHO cells …; assay: flow cytometry, B7-H3-expressing CHO cells, 10 ug/ml
Procedure: Binding of anti-B7-H3 antibodies to cell lines was assessed by flow cytometry. Briefly, approximately 1.5 e5 B7-H3-expressing CHO cells (Genescript) or parent CHO cells (ATCC) were resuspended in FACS buffer (PBS/1% BSA/0.01% NaN3) containing 10 μg/ml of anti-B7-H3 antibodies and incubated for 60 min on ice. […] Cells were then washed twice, resuspended in FACS buffer, and read on an Attune Flow Cytometer (Life Technologies). Data are expressed as Mean Fluorescent Intensities (MFI).

| Binder | ELISA OD450 @ 1 ug/ml [1] | ELISA OD450 @ 1 ug/ml [2] | ELISA OD450 @ 1 ug/ml [3] | hu:mu ratio [4] | MFI @ 10 ug/ml [5] |
| --- | --- | --- | --- | --- | --- |
| 40633p1.1.E6 (scFv, V domains shown, Tested as scFv-Fc (Expi293 supernatant)) VH: EVQLLESGGGLVQPGGSLRLSCAASGLTFSSYAMNWVRQAPGKGLEWVAGIGGSGSSTYHTDSVKGRFTISRDNSKNTLYLQMSSLRAEDAAVYYCAKEDHWSGGMDVWGQGTTVTVSS VL: not shown | 0.572 OD450 | 1.53 OD450 | 1.39 OD450 | 2.44 | 43500 MFI |
| 40633p1.1.G3 (scFv, V domains shown, Tested as scFv-Fc (Expi293 supernatant)) VH: EVQLLESGGGLVQPGGSLRLSCAASGLTFSSYAMNWVRQAPGKGLEWVAGIGGSGSSTYHTDSVKGRFTISRDNSKNTLYLQMNSLRAEDAAVYYCAKEDHWSGGMDVWGQGTTVTVSS VL: not shown | 1.68 OD450 | 1.89 OD450 | 2.14 OD450 | 1.28 | 69900 MFI |
| 40633p1.1.F2 (scFv, V domains shown, Tested as scFv-Fc (Expi293 supernatant)) VH: EVQLLESGGGLVQPGGSLRLSCVASGLTFNGFAMTWVRQAPGKGLEWVSGISWNSGSIYYADSVKGRFTISRDNSKNTVYLQMSSLRAEDTAIYYCAKNWNDYYNSMDVWGQGTTVTVSS VL: QSVLTQPPSASGTPGQRVTISCSGSRSNIGTKYVYWYQQFPGTAPKLLIYTTDRRPSGVPDRFSGSKSGTSASLAISGLQSEDEADYYCSAWDDRLNAWVFGGGTKLTVL | 1.2 OD450 | 1.77 OD450 | 1.76 OD450 | 1.47 | 66800 MFI |
| 40633p1.1.G10 (scFv, V domains shown, Tested as scFv-Fc (Expi293 supernatant)) VH: EVQLLESGGGLVEPGGSLRLSCAASGFSFSSYGMHWVRQAPGKGLDWVAVINGEGSGTYYADSVKGRFTISRDNSKSTLYLQMNSLRAEDTAVYYCTKYYYNYAMDVWGQGTTVTVSS VL: QSVLTQPPSASGTPGQRVTISCSGSRTDIGTTSVNWYQQLPGTAPKLLIYQSHQRPSGVPDRFSGSKSGTSASLAISGLQSEDEADYYCASWDASQNTWVFGGGTKLTVL | 1.67 OD450 | 1.81 OD450 | 2.2 OD450 | 1.32 | 60100 MFI |
| 40633p1.1.G5 (scFv, V domains shown, Tested as scFv-Fc (Expi293 supernatant)) VH: EVQLLESGGGLVQPGGSLRLSCAASGFIVNYYGMSWVRQPPGKGLEWVSAIKQDGSEKYYADSVKGRFTISRDNSKTTLYLQMNSLRAEDTAVYYCARHWNDYSNGMNVWGQGTTVTVSS VL: QSVLTQPPSASGTPGQRVTISCSGSWSNIGSYNSHWYQKLPGTAPKLLIYTTDRRPSGVPDRFSGSKSGTSASLAISGLQSEDEADYYCGTWDDSLNVWVFGGGTKLTVL | 0.257 OD450 | 1.49 OD450 | 0.794 OD450 | 3.09 | 41000 MFI |
| 40633p1.1.G7 (scFv, V domains shown, Tested as scFv-Fc (Expi293 supernatant)) VH: EVQLLESGGGLVQPGGSLRLSCAASGFTFSGSAMNWVRQAPGKGLEWVSAINSGGTTIYYADSVKGRFTVSRDNSKNTLYLQMNSLRAEDTAVYYCVKLDFYYGMDVWGEGTTVTVSS VL: QSVVTQPPSASGTPGQRVTVSCSGSSSNVGSKYVQWYQQLPGTAPKLLIYATDRRPSGVPDRFSGSKSGTSASLAISGLQSEDEADYYCASWDDSLNAWVFGGGTKLTVL | 1.87 OD450 | 1.95 OD450 | 2.16 OD450 | 1.15 | 78300 MFI |
| 40633p1.1.H11 (scFv, V domains shown, Tested as scFv-Fc (Expi293 supernatant)) VH: EVQLLESGGGLVQPGGSLRLSCAASGFTFSSYPMTWVRQAPGKGLEWVADINSGGGTTLYADAVKGRFTISRDNSKNIVYLQMNSLRGEDTAVYYCAKHLDYYSYGMDVWGQGTTVTVSS VL: QSVLTQPPSASGTPGQRVTISCSGVTSKIGSKYVHWYQQLPGTAPKLLIYRNFERPSGVPDRFSGSTSGTSASLAISGLQSEDEADYYCATWEGALNGWVFGGGTKLTVL | 1.88 OD450 | 1.92 OD450 | 2.07 OD450 | 1.1 | 81300 MFI |
| 40511p1.1.D6 (scFv, V domains shown, Tested as scFv-Fc (Expi293 supernatant)) VH: DVQLVESGGGVVRPGESLTLSCAASGFTINSYAVSWVRQAPGEGLEWVSGISGSGVRYYADSVKGRFTISRDNSNNTLYLQMNSLRAEDTAVYYCARSNKVTWNNFFDYWGLGTLVTVSS VL: EVVLTQSPGTLTLSPGERATLSCRASRSILTSLAWYQQKPGQAPRLLIYNTVTRATGIPARFSGSGSGTEFTLTINSLQSEDFAVYYCQQYYDWPPLTFGGGTKVEIK | 1.61 OD450 | 2.11 OD450 | 1.92 OD450 | 1.19 | 84200 MFI |
| 40511p1.1.G3 (scFv, V domains shown, Tested as scFv-Fc (Expi293 supernatant)) VH: DVQLVESGGGVVRPGESLTLSCAASGFTINSYAVSWVRQAPGEGLEWVSGISGSGVRYYADSVKGRFTISRDDSNNTLYLQMNSLRAEDTAVYYCARSNKVTWNNFFDYWGLGTLVTVSS VL: EVVLTQSPGTLTLSPGERATLSCRASRSILTSLAWYQQKPGQAPRLLIYNTVTRATGIPARFSGSGSGTEFTLTINSLQSEDFAVYYCQQYYDWPPLTFGGGTKVEIK | 1.71 OD450 | 1.97 OD450 | 2.13 OD450 | 1.24 | 89100 MFI |
| 40633p1.2.D1 (scFv, V domains shown, Tested as scFv-Fc (Expi293 supernatant)) VH: EVQLLESGGGLVQPGGSLRLSCAASGFTFDVYGMSWVRQAPGKGLEWVSAINWNGGSTYYADSVKGRFTISRDNSENTLYLQMNSLRAEDTAVYYCAKEKWKHFIYYGMDVWGQGTTVTVSS VL: QSVLTQPASASGTPGQTVSISCSGSSSNIDSNTANWYQQLPGTAPKLLIYSNNQRPSGVPDRFSGSKSDTSASLAISGLQSEDEGDYYCSAWDDNLNGWLFGGGTKLTVL | 1.38 OD450 | 1.94 OD450 | 1.49 OD450 | 1.08 | 14100 MFI |
| 40633p1.2.D11 (scFv, V domains shown, Tested as scFv-Fc (Expi293 supernatant)) VH: EVQLESGGGLVQPGGSLRLSCAASGFTVSYYGMSWVRQAPGKGLEWVSAIKQDGSEKYYADSVKGRFTISRDNSKNTLYLQMNSLRAEDTAVYYCARHWNDYSNAMNVWGQGTTVTVSS VL: QSVLTQPPSASGTPGQRVTISCSGSTSNIAIDFVNWYQQLPGTAPKLLIYTIDQRPSGVPDRFSGSKSGTSASLAISGLQSEDEAVYYCASWDASLNGWVFGRGTKLTVL | 1.03 OD450 | 1.95 OD450 | 1.53 OD450 | 1.49 | 63200 MFI |
| 40633p1.2.E5 (scFv, V domains shown, Tested as scFv-Fc (Expi293 supernatant)) VH: EVQLLESGGGLVQPGGSLRLSCAASGFTFDGYGMSWVRQAPGKGLEWVSAISGNSGSIYYADSVKGRFTISRDNSKNTLYLQMNSLRAEDTAAYYCAKEKWKHFIYYGMDVWGQGTTVTVSS VL: not shown | 1.92 OD450 | 2.08 OD450 | 2.15 OD450 | 1.12 | 86600 MFI |
